Data from patent US20260275319A1, “ARCHAEAL PEPTIDE RECOMBINASE – A NOVEL PEPTIDE LIGATING ENZYME” (MAX-PLANCK-GESELLSCHAFT ZUR FÖRDERUNG DER WISSENSCHAFTEN …, priority 2019, published 2026).

Key:
(15)KDPGA(0) = test: microscale thermophoresis (MST); table row (15)KDPGA(0)
(15)KDPGA(5) = test: microscale thermophoresis (MST); table row (15)KDPGA(5)

B1: M. jannaschii Adriase S1A mutant with C-terminal His-tag, Q57968 3-293 (enzyme)
chain: ALIICYYGKNGAVIGGDRRQIFFRGSEENRKILEEKLYSGEIKSEEELYKLAEKLNIKIIIEDDREKVRKISDSVVCGEVRSLGIDAKRRRVYATKGKCAIVDILNDTVTNQTIKEGFGIVVLGNRFLKKKAEEELKRTAKLFPMMPIQQIEDAIKEIFEKLKWHPTVSKEYDIYSVNKYEKNFEEVIKKDIESLFKYREQLRKQLIDFGKVMSIVNKIVKNGEIGVIKDGKLHLYDDYIAIDKIDPNPKVFKVVDVEGNFKDGDIVVIENGDMKIKGTNEKVTTKYIIIHKGSHHHHHH
Kd ((15)KDPGA(0)): > 20 µM | Kd ((15)KDPGA(5)): > 20 µM
